System: serum phenylalanine
Experiment: Comparative pharmacodynamics with Pegvaliase: serum phenylalanine after multiple administrations
Assay type: in vivo
Details: Pah^enu mice, 3 mg/kg s.c. once weekly; second to fourth administrations
Text: To evaluate the differences in pharmacodynamics and immunogenicity between the polyethylene glycol conjugate PL54-5 of directionally saturated modified phenylalanine lyase mutant and Pegvaliase (marketed drug), eight Pah^enu mice were allocated into two groups of four mice each, and administered with either PL54-5 (average degree of modification: 13.60, specific enzyme activity: 1.27 U/mg) from Table 3 of Example 2 or Pegvaliase Injection (manufactured by BioMarin, purchased lot number L161239, specification: 20 mg/mL/vial) at an administration dose of 3.0 mg/kg, once weekly via subcutaneous injection for four consecutive weeks. Blood samples were collected from each group of mice before administration and at 3 days and 7 days after each administration, respectively. Changes in serum phenylalanine concentration were measured (Reference: Judy Peat et al., Determination of Phenylalanine and Tyrosine by High Performance Liquid Chromatography-Tandem Mass Spectrometry) and anti-PEG-IgM/IgG antibody titers of each animal were determined at the end of the study (see Example 5 for details), to assess differences in pharmacodynamics and immunogenicity, as shown in FIG. 11 and FIG. 12.

B1: PL54-5: polyethylene glycol conjugate of PAL4 (SEQ ID NO: 6) with PEG-SPA-5K, molar ratio 1:16, average degree of modification 13.60 (conjugate)
chain: MKTLSQAQSKTSSQQFSFTGNSSANVIIGNQKLTINDVARVARNGTLVSLTNNTDILQGIQASCDYINNAVKSGEPIYGVTSGFGGMANVAISREQASELQTNLVWFLKTGAGNKLPLADVRAAMLLRANSHMRGASGIRLELIKRMEIFLNAGVTPYVYEFGSIGASGDLVPLSYITGSLIGLDPSFKVDFNGKEMDAPTALRQLNLSPLTLLPKEGLAMMNGTSVMTGIAANCVYDTKILTAIAMGVHALDIQALNGTNQSFHPFIHNSKPHPGQLWAADQMISLLANSQLVRDELDGKHDYRDHELIQDRYSLRCLPQYLGPIVDGISQIAKQIEIEINSVTDNPLIDVDNQASYHGGNFLGQYVGMGMDHLRYYIGLLAKHLDVQIALLASPEFSNGLPPSLLGNRERKVNMGLKGLQICGNSIMPLLTFYGNSIADRFPTHAEQFNQNINSQGYTSATLARKSVDIFQNYVAIALMFGVQAVDLRTYKKTGHYDARASLSPATERLYSAVRHVVGQKPTSDRPYIWNDNEQGLDEHIAKISADIAAGGVIVQAVQDILPSLH
modifications: PEG-SPA-5K conjugate, ~13.6 PEG per molecule
phenylalanine-lowering effect: consistently reduced phenylalanine levels on Day 3

From patent EP4711453A1, “PHENYLALANINE LYASE MUTANT, AND CONJUGATE THEREOF OR PHARMACEUTICALLY ACCEPTABLE SALT THEREOF” (Peg-Bio Biopharm Co., Ltd. (Chongqing), priority 2023, dated 2024)
